Assay [1] concerns the target T1, EpCAM (UniProt P16422 24-314, limits assumed).
T1 construct: whole, on cells; also called EpCAM on EpCAM positive Kato III cells
T1 sequence (looked up): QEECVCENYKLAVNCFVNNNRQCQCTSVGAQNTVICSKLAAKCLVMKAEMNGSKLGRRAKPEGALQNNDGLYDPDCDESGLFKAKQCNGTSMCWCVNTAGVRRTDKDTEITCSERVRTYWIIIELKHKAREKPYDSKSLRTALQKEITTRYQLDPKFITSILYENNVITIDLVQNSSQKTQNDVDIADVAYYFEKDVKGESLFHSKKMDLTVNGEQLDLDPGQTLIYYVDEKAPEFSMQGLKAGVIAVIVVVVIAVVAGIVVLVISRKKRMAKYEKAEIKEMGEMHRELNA
Description: FACS on KatoIII cells, detection via His tag.

The target of a further assay is human CD3 complex (human, UniProt P07766 23-207; P04234 22-171; P09693 23-182). Description: cell-based or functional assay.
In the next assay the target is T2, CD19 (human, UniProt P15391 20-556).
T2 construct: whole, on cells; also called CD19 on CD19 positive Nalm 6 cells; NALM-6
T2 sequence (looked up): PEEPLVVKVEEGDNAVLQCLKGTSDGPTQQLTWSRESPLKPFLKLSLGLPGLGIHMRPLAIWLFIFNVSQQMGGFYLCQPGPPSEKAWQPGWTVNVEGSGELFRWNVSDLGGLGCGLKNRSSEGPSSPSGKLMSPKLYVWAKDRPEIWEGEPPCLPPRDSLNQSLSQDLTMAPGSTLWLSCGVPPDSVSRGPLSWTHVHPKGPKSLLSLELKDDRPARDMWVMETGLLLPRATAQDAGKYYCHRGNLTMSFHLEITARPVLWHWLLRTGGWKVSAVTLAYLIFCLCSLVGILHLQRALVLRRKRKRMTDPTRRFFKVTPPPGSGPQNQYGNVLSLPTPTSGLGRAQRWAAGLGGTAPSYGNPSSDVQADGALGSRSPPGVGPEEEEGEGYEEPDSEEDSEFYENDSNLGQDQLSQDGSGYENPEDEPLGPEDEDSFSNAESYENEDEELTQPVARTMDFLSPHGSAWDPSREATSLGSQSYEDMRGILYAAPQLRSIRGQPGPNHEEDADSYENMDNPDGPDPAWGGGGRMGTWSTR
Description: FACS on Nalm6 cells, detection via His tag. On the procedure:
CD19 positive Nalm 6 cells (human B cell precursor leukaemia) and CD3 positive Jurkat cells (human T cell leukemia) were used. 200,000 Nalm 6 cells and 200,000 Jurkat cells were incubated with 50 μl the pure cell culture supernatant of CHO cells transfected with the anti-CD19xhum. anti-CD3 specific polypeptide for 30 min on ice. The cells were washed twice in PBS. Then the binding of the construct was detected via its C-terminal Histidin Tag with a murine Penta H is antibody (diluted 1:20 in 50 μl PBS with 2% FCS; Qiagen) followed by a washing step and a Phycoerythrin conjugated Fc gamma specific antibody (Dianova), diluted 1:100 in 50 μl PBS with 2% FCS (FIG. 2A, thick line). As negative control fresh cell culture medium instead of cell culture supernatant was used (FIG. 2, thin line).
Cells were analysed by flow cytometry on a FACS-Calibur (Becton Dickinson, Heidelberg). FACS staining and measuring of the fluorescence intensity were performed as described in Current Protocols in Immunology (Coligan, Kruisbeek, Margulies, Shevach and Strober, Wiley-Interscience, 2002). The binding activity of the bispecific binding molecule was compared to the binding activity of the corresponding control bispecific antibody with the humanized OKT3 part as described in prior art.

Assay [2] has as its target T1, EpCAM. Description: FACS on Kato III cells, CHO supernatant (FIG. 2C).

B1: bispecific anti-EpCAM (3-1)x hum. anti-CD3 antibody construct (SEQ ID NO.: 34) (bispecific antibody)
chain: ELVMTQSPSYLAASPGETITINCRASKSISKYLAWYQEKPGKTNKLLIYSGSTLQSGIPSRFSGSGSGTDFTLTISSLEPEDFAMYYCQQHNEYPYTFGGGTKLEIKGGGGSGGGGSGGGGSEVQLLEQSGAELVKPGASVKISCKASGYAFTNYWLGWVKQRPGHGLEWIGDLFPGSGNTHYNERFRGKATLTADKSSSTAFMQLSSLTSEDSAVYFCARLRNWDEAMDYWGQGTTVTVSSGGGGSQVQLVQSGGGVVQPGRSLRLSCKSSGYTFTRYTMHWVRQAPGKGLEWIGYINPSRGYTNYNQKVKDRFTISRDNSKNTAFLQMDSLRPEDTGVYFCARYYDDHYCLDYWGQGTPVTVSSVEGGSGGSGGSGGSGGVDDIQMTQSPSSLSASVGDRVTITCRASSSVSYMNWYQQTPGKAPKRWIYDTSKVASGVPSRFSGSGSGTDYTFTISSLQPEDIATYYCQQWSSNPLTFGQGTKLQIT
notes: Bispecific single chain Fv, tested as CHO culture supernatant
Turning to B1, the binding result with EpCAM [1] is “binds”.

B2: bispecific anti-CD19xhum. anti-CD3 antibody construct (SEQ ID NO.: 20) (bispecific antibody)
chain: DIQLTQSPASLAVSLGQRATISCKASQSVDYDGDSYLNWYQQIPGQPPKLLIYDASNLVSGIPPRFSGSGSGTDFTLNIHPVEKVDAATYHCQQSTEDPWTFGGGTKLEIKGGGGSGGGGSGGGGSQVQLQQSGAELVRPGSSVKISCKASGYAFSSYWMNWVKQRPGQGLEWIGQIWPGDGDTNYNGKFKGKATLTADESSSTAYMQLSSLASEDSAVYFCARRETTTVGRYYYAMDYWGQGTTVTVSSGGGGSQVQLVQSGGGVVQPGRSLRLSCKSSGYTFTRYTMHWVRQAPGKGLEWIGYINPSRGYTNYNQKVKDRFTISRDNSKNTAFLQMDSLRPEDTGVYFCARYYDDHYCLDYWGQGTPVTVSSVEGGSGGSGGSGGSGGVDDIQMTQSPSSLSASVGDRVTITCRASSSVSYMNWYQQTPGKAPKRWIYDTSKVASGVPSRFSGSGSGTDYTFTISSLQPEDIATYYCQQWSSNPLTFGQGTKLQIT
notes: Bispecific single chain Fv made in CHO cells; FACS used raw culture supernatant; the cytotoxicity assay used purified protein; also called anti-CD19xhum. anti-CD3 (improved hum. OKT3); bispecific humanized improved CD3 (hum. anti-CD3)
Take B2: in the assay with human CD3 complex, the “cytotoxic activity (EC50), calcein release from NALM-6 target cells with CD4-positive CB15 T-cells” value was 0.05 ng/mL. Further, in the assay with CD19, the binding result is reported as “binds”.

B3: bispecific anti-EpCAM (5-10)x hum. anti-CD3 antibody construct (SEQ ID NO.: 36) (bispecific antibody)
chain: ELVMTQSPSSLTVTAGEKVTMSCKSSQSLLNSGNQKNYLTWYQQKPGQPPKLLIYWASTRESGVPDRFTGSGSGTDFTLTISSVQAEDLAVYYCQNDYSYPLTFGAGTKLEIKGGGGSGGGGSGGGGSEVQLLEQSGAELVRPGTSVKISCKASGYAFTNYWLGWVKQRPGHGLEWIGDIFPGSGNIHYNEKFKGKATLTADKSSSTAYMQLSSLTFEDSAVYFCARLRNWDEPMDYWGQGTTVTVSSGGGGSQVQLVQSGGGVVQPGRSLRLSCKSSGYTFTRYTMHWVRQAPGKGLEWIGYINPSRGYTNYNQKVKDRFTISRDNSKNTAFLQMDSLRPEDTGVYFCARYYDDHYCLDYWGQGTPVTVSSVEGGSGGSGGSGGSGGVDDIQMTQSPSSLSASVGDRVTITCRASSSVSYMNWYQQTPGKAPKRWIYDTSKVASGVPSRFSGSGSGTDYTFTISSLQPEDIATYYCQQWSSNPLTFGQGTKLQIT
notes: as for B1
Take B3: the binding result with EpCAM [2] is “binds”.
